B1: Twister Ribozyme (parent)
chain: AACACUGCCAAUGCCGGUCCCAAGCCCGGAUAAAAGUGGAGGGGGCGG

Variants of: B1
Assay: self-cleavage, relative activity (ratio to wild type); higher = more cleavage; co-transcriptional

Variant	self-cleavage
AACACUGCCAAUGCCGGUCCCAAGCCCUGAUAAAUGUGGAGGGGGCGG	0.888
AACACUGCCAAUGCCGGUCCCAAGCCCUGAUAAAGGUGGAGGGGGCGG	0.584
AACACUGCCAAUGCCGGUCCCAAGCCCUGAUAAAAGUGUAGGGGGCGG	0.177
AACACUGCCAAUGCCGGUCCCAAGCCCCGAGAAAAGUGGAGGGGGCGG	0.739
AACACUGCCAAUGCCGGUCCCAAGCCCCGAAAAAAGUGGAGGGGGCGG	0.814
AACACUGCCAAUGCCGGUCCCAAGCCCCGACAAAAGUGGAGGGGGCGG	0.938
AACACUGCCAAUGCCGGUCCCAAGCCCUGAUAAAAGUGGAGGGGGGGG	0.765
AACACUGCCAAUGCCGGUCCCAAGCCCUGAUAAAAGUGGAGGGGGAGG	0.778
AACACUGCCAAUGCCGGUCCCAAGCCCAGAUAAAAGUGGAAGGGGCGG	0.385
AACACUGCCAAUGCCGGUCCCAAGCCCAGAUAAAAGUGUAGGGGGCGG	0.16
AACACUGCCAAUGCCGGUCCCAAGCCCCGCUAAAAGUGGAGGGGGCGG	0.848
AACACUGCCAAUGCCGGUCCCAAGCCCCGGUAAAAGUGGAGGGGGCGG	0.77
AACACUGCCAAUGCCGGUCCCAAGCCCUAAUAAAAGUGGAGGGGGCGG	0.947
AACACUGCCAAUGCCGGUCCCAAGCCCUCAUAAAAGUGGAGGGGGCGG	0.928
AACACUGCCAAUGCCGGUCCCAAGCCCUGAUGAAAGUGGAGGGGGCGG	0.777
AACACUGCCAAUGCCGGUCCCAAGCCCUGAUCAAAGUGGAGGGGGCGG	0.716
AACACUGCCAAUGCCGGUCCCAAGCCCUGAUUAAAGUGGAGGGGGCGG	0.873
AACACUGCCAAUGCCGGUCCCAAGCCCCGAUAAAAGUGGAGGGGGCGA	0.405
AACACUGCCAAUGCCGGUCCCAAGCCCAGAUAAAACUGGAGGGGGCGG	0.131
AACACUGCCAAUGCCGGUCCCAAGCCCAGAUUAAAGUGGAGGGGGCGG	0.817
AACACUGCCAAUGCCGGUCCCAAGCCCAGAUCAAAGUGGAGGGGGCGG	0.941
AACACUGCCAAUGCCGGUCCCAAGCCCAGAUGAAAGUGGAGGGGGCGG	0.835

Variant	self-cleavage
AACACUGCCAAUGCCGGUCCCAAGCCCGAAUUAAAGUGGAGGGGGCGG	0.949
AACACUGCCAAUGCCGGUCCCAAGCCCGAAUCAAAGUGGAGGGGGCGG	0.916
AACACUGCCAAUGCCGGUCCCAAGCCCCGAUAAAAGUGGAGGGGGCCG	0.254
AACACUGCCAAUGCCGGUCCCAAGCCCCGAUAAAAGUGCAGGGGGCGG	0.159
AACACUGCCAAUGCCGGUCCCAAGCCCAAAUAAAAGUGGAGGGGGCGG	0.898
AACACUGCCAAUGCCGGUCCCAAGCCCAGAUAAAAGUGGAGGGGGCGA	0.775
AACACUGCCAAUGCCGGUCCCAAGCCCCGAUAAAAGUGGAGGGGCCGG	0.155
AACACUGCCAAUGCCGGUCCCAAGCCCCGAUAAAAGUGGAGGGGUCGG	0.349
AACACUGCCAAUGCCGGUCCCAAGCCCGAAUAGAAGUGGAGGGGGCGG	0.845
AACACUGCCAAUGCCGGUCCCAAGCCCCGAUAAAAGUGGAGGGAGCGG	0.782
AACACUGCCAAUGCCGGUCCCAAGCCCGAAUAAGAGUGGAGGGGGCGG	0.684
AACACUGCCAAUGCCGGUCCCAAGCCCAGAUAAAAGGGGAGGGGGCGG	0.331
AACACUGCCAAUGCCGGUCCCAAGCCCAGAUAAAAGCGGAGGGGGCGG	0.391
AACACUGCCAAUGCCGGUCCCAAGCCCUGAUAAAAGUGGAGAGGGCGG	0.26
AACACUGCCAAUGCCGGUCCCAAGCCCAGAUAACAGUGGAGGGGGCGG	0.175
AACACUGCCAAUGCCGGUCCCAAGCCCAGAUAAGAGUGGAGGGGGCGG	0.606
AACACUGCCAAUGCCGGUCCCAAGCCCAGAUAAAAGUGGAGGGGGCCG	0.283
AACACUGCCAAUGCCGGUCCCAAGCCCAGAUAAAAGUGGAGGGGGCAG	0.545
AACACUGCCAAUGCCGGUCCCAAGCCCAGAUAAAAGUGGAGGGGGCUG	0.576
AACACUGCCAAUGCCGGUCCCAAGCCCCGAUAAAAGUGGAGGUGGCGG	0.17
AACACUGCCAAUGCCGGUCCCAAGCCCGAAUAAAAGUGGGGGGGGCGG	0.146
AACACUGCCAAUGCCGGUCCCAAGCCCGAAUAAAAGUGGUGGGGGCGG	0.204

Variant	self-cleavage
AACACUGCCAAUGCCGGUCCCAAGCCCGAAUAAAAGUGGCGGGGGCGG	0.176
AACACUGCCAAUGCCGGUCCCAAGCCCAGAUAGAAGUGGAGGGGGCGG	0.781
AACACUGCCAAUGCCGGUCCCAAGCCCAGAUAUAAGUGGAGGGGGCGG	0.707
AACACUGCCAAUGCCGGUCCCAAGCCCUGGUAAAAGUGGAGGGGGCGG	0.999
AACACUGCCAAUGCCGGUCCCAAGCCCUGCUAAAAGUGGAGGGGGCGG	0.968
AACACUGCCAAUGCCGGUCCCAAGCCCCGAUAAAAGUGGUGGGGGCGG	0.17
AACACUGCCAAUGCCGGUCCCAAGCCCCGAUAAAAGUGGAAGGGGCGG	0.408
AACACUGCCAAUGCCGGUCCCAAGCCCCGAUAAAAGUGGAUGGGGCGG	0.332
AACACUGCCAAUGCCGGUCCCAAGCCCCGAUAAAAGUGGACGGGGCGG	0.217
AACACUGCCAAUGCCGGUCCCAAGCCCCGAUAAAAGUAGAGGGGGCGG	0.743
AACACUGCCAAUGCCGGUCCCAAGCCCAGACAAAAGUGGAGGGGGCGG	0.835
AACACUGCCAAUGCCGGUCCCAAGCCCGAAUAAAAGUGGAGGGGGCGG	0.915
AACACUGCCAAUGCCGGUCCCAAGCCCCGAUAAAAGCGGAGGGGGCGG	0.267
AACACUGCCAAUGCCGGUCCCAAGCCCCGAUAAAAGUGGAGGGGGUGG	0.841
AACACUGCCAAUGCCGGUCCCAAGCCCCGAUAAAAGUGGAGGGGGAGG	0.684
AACACUGCCAAUGCCGGUCCCAAGCCCCGAUAAAAGUGGAGGGGGGGG	0.565
AACACUGCCAAUGCCGGUCCCAAGCCCUGAUAAAAGUCGAGGGGGCGG	0.676
AACACUGCCAAUGCCGGUCCCAAGCCCUGAUAAAAGUAGAGGGGGCGG	0.763
AACACUGCCAAUGCCGGUCCCAAGCCCAGAUAAAAGUGGAGGGAGCGG	0.702
AACACUGCCAAUGCCGGUCCCAAGCCCAGAUAAAAGUGGAGGGCGCGG	0.718
AACACUGCCAAUGCCGGUCCCAAGCCCUGAUAACAGUGGAGGGGGCGG	0.205
AACACUGCCAAUGCCGGUCCCAAGCCCUGAUAAUAGUGGAGGGGGCGG	0.585

Variant	self-cleavage
AACACUGCCAAUGCCGGUCCCAAGCCCCGAUAAAAAUGGAGGGGGCGG	0.292
AACACUGCCAAUGCCGGUCCCAAGCCCCGAUAAAACUGGAGGGGGCGG	0.173
AACACUGCCAAUGCCGGUCCCAAGCCCUGAUAAAAGUGGAAGGGGCGG	0.459
AACACUGCCAAUGCCGGUCCCAAGCCCUGAUAAAAGUGGACGGGGCGG	0.263
AACACUGCCAAUGCCGGUCCCAAGCCCUGAGAAAAGUGGAGGGGGCGG	0.992
AACACUGCCAAUGCCGGUCCCAAGCCCUGAUAAAAGUGGAGGGGGCUG	0.567
AACACUGCCAAUGCCGGUCCCAAGCCCUGAUAAAAGUGGAGGGGGCAG	0.374
AACACUGCCAAUGCCGGUCCCAAGCCCAGAUAAAAGUGGAGGGGACGG	0.653
AACACUGCCAAUGCCGGUCCCAAGCCCAGAUAAAAGUGGAGGGGUCGG	0.375
AACACUGCCAAUGCCGGUCCCAAGCCCAGAUAAAAGUGGAGGGGCCGG	0.185
AACACUGCCAAUGCCGGUCCCAAGCCCCGAUUAAAGUGGAGGGGGCGG	0.813
AACACUGCCAAUGCCGGUCCCAAGCCCCGAUGAAAGUGGAGGGGGCGG	0.734
AACACUGCCAAUGCCGGUCCCAAGCCCAGAUAAAAGUAGAGGGGGCGG	0.821
AACACUGCCAAUGCCGGUCCCAAGCCCAGAUAAAAGUGGAGUGGGCGG	0.261
AACACUGCCAAUGCCGGUCCCAAGCCCUGAUAUAAGUGGAGGGGGCGG	0.833
AACACUGCCAAUGCCGGUCCCAAGCCCUGAUAGAAGUGGAGGGGGCGG	0.979
AACACUGCCAAUGCCGGUCCCAAGCCCUGAUACAAGUGGAGGGGGCGG	0.838
AACACUGCCAAUGCCGGUCCCAAGCCCGAAUAAAGGUGGAGGGGGCGG	0.657
AACACUGCCAAUGCCGGUCCCAAGCCCGAAUAAAAGUGGAGGGGGAGG	0.922
AACACUGCCAAUGCCGGUCCCAAGCCCGAAUAAAAGUGGAGGGGGUGG	0.948
AACACUGCCAAUGCCGGUCCCAAGCCCUGAUAAAAGAGGAGGGGGCGG	0.348
AACACUGCCAAUGCCGGUCCCAAGCCCUGAUAAAAGGGGAGGGGGCGG	0.168

Variant	self-cleavage
AACACUGCCAAUGCCGGUCCCAAGCCCUGAUAAAAGCGGAGGGGGCGG	0.431
AACACUGCCAAUGCCGGUCCCAAGCCCGAAUAAAAAUGGAGGGGGCGG	0.458
AACACUGCCAAUGCCGGUCCCAAGCCCUGAUAAAACUGGAGGGGGCGG	0.232
AACACUGCCAAUGCCGGUCCCAAGCCCUGAUAAAAAUGGAGGGGGCGG	0.388
AACACUGCCAAUGCCGGUCCCAAGCCCUGAUAAAAGUGGAGGGGUCGG	0.375
AACACUGCCAAUGCCGGUCCCAAGCCCAGAUAAACGUGGAGGGGGCGG	0.793
AACACUGCCAAUGCCGGUCCCAAGCCCAGAUAAAUGUGGAGGGGGCGG	0.847
AACACUGCCAAUGCCGGUCCCAAGCCCUGAUAAAAGUGGAGGGUGCGG	0.879
AACACUGCCAAUGCCGGUCCCAAGCCCUGAUAAAAGUGGAGGGCGCGG	0.782
AACACUGCCAAUGCCGGUCCCAAGCCCCCAUAAAAGUGGAGGGGGCGG	0.865
AACACUGCCAAUGCCGGUCCCAAGCCCCUAUAAAAGUGGAGGGGGCGG	0.98
AACACUGCCAAUGCCGGUCCCAAGCCCAGAUAAAAGUGGAGGGGGGGG	0.864
AACACUGCCAAUGCCGGUCCCAAGCCCAGAUAAAAGUGGAGGGGGAGG	0.682
AACACUGCCAAUGCCGGUCCCAAGCCCCGAUAGAAGUGGAGGGGGCGG	0.83
AACACUGCCAAUGCCGGUCCCAAGCCCCGAUACAAGUGGAGGGGGCGG	0.745
AACACUGCCAAUGCCGGUCCCAAGCCCUGAUAAAAGUGGAGGCGGCGG	0.151
AACACUGCCAAUGCCGGUCCCAAGCCCUGAUAAAAGUGGAGGAGGCGG	0.221
AACACUGCCAAUGCCGGUCCCAAGCCCUGAUAAAAGUGGAGGUGGCGG	0.285
AACACUGCCAAUGCCGGUCCCAAGCCCCGAUAACAGUGGAGGGGGCGG	0.154
AACACUGCCAAUGCCGGUCCCAAGCCCCGAUAAGAGUGGAGGGGGCGG	0.491

From the RNAGym collection of RNA variant scans (doi:10.7554/elife.80360)
